Measurements as given in IntAct's records for PubMed 24114786.

Experiments:
[1] = target: bak1_arath BAK1 (UniProt Q94F62)
[2] = target: flica_pseai fliC (UniProt P21184)
Chain of flica_pseai fliC (P21184 whole entry): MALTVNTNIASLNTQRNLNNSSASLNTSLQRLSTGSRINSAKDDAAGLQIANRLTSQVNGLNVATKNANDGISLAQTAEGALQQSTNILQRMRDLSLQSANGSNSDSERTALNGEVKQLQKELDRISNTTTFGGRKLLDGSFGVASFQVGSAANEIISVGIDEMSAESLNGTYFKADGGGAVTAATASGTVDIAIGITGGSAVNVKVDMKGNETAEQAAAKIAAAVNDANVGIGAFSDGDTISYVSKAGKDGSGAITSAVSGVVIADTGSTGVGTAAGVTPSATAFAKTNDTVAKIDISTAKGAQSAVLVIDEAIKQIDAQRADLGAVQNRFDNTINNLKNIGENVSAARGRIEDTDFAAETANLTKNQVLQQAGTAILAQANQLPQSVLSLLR

Chain of bak1_arath BAK1 (Q94F62 whole entry): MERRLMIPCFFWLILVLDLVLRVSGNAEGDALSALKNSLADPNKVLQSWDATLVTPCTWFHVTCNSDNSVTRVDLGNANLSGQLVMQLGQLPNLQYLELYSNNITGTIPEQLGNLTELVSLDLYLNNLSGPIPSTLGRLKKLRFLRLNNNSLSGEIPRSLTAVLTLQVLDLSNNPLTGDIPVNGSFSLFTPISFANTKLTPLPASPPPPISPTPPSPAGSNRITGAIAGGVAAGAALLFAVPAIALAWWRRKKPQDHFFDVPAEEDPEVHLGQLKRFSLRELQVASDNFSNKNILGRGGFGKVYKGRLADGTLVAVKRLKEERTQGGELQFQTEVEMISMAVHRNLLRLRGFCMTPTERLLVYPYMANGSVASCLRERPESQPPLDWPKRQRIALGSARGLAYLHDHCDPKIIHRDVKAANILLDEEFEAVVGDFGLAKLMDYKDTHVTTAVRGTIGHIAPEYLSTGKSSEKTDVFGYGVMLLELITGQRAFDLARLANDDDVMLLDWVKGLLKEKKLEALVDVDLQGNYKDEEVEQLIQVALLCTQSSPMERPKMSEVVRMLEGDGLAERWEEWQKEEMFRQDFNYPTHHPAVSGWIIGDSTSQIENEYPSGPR
Chain of LRR receptor-like serine/threonine-protein kinase FLS2 (Arabidopsis thaliana (Mouse-ear cress)), Q9FL28 D414A (Q9FL28 whole entry D414A): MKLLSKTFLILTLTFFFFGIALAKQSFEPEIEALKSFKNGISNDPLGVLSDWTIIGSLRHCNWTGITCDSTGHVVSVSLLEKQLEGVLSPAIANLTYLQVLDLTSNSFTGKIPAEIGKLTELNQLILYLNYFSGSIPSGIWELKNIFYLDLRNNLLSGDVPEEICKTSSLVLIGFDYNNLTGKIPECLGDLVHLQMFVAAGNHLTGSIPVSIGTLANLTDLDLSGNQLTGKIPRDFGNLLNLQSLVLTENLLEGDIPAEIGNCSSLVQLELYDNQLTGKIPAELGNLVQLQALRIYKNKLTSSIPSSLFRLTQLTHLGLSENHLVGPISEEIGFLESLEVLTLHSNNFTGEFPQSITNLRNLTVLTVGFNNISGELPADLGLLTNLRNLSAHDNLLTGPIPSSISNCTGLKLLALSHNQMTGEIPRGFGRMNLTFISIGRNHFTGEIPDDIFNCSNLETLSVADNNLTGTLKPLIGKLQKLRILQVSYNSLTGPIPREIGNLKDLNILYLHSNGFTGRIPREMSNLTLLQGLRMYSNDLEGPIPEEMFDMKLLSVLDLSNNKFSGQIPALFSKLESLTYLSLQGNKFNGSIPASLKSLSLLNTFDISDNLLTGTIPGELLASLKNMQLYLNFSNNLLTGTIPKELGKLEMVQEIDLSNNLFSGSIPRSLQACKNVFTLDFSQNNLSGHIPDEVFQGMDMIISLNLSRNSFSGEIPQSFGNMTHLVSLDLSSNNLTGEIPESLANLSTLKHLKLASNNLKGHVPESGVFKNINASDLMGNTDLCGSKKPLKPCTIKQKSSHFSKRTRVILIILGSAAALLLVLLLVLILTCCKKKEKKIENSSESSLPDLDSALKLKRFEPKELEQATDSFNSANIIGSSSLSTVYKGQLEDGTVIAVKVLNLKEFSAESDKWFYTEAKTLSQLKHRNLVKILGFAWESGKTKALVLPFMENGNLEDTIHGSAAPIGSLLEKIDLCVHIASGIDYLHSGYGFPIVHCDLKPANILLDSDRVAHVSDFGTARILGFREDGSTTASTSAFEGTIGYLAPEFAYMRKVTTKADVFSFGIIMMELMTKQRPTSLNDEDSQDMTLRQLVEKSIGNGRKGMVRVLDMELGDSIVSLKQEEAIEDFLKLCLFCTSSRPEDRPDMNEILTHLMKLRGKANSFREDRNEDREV
Chain of LRR receptor-like serine/threonine-protein kinase FLS2 (Arabidopsis thaliana (Mouse-ear cress)), Q9FL28 T342Y (Q9FL28 whole entry T342Y): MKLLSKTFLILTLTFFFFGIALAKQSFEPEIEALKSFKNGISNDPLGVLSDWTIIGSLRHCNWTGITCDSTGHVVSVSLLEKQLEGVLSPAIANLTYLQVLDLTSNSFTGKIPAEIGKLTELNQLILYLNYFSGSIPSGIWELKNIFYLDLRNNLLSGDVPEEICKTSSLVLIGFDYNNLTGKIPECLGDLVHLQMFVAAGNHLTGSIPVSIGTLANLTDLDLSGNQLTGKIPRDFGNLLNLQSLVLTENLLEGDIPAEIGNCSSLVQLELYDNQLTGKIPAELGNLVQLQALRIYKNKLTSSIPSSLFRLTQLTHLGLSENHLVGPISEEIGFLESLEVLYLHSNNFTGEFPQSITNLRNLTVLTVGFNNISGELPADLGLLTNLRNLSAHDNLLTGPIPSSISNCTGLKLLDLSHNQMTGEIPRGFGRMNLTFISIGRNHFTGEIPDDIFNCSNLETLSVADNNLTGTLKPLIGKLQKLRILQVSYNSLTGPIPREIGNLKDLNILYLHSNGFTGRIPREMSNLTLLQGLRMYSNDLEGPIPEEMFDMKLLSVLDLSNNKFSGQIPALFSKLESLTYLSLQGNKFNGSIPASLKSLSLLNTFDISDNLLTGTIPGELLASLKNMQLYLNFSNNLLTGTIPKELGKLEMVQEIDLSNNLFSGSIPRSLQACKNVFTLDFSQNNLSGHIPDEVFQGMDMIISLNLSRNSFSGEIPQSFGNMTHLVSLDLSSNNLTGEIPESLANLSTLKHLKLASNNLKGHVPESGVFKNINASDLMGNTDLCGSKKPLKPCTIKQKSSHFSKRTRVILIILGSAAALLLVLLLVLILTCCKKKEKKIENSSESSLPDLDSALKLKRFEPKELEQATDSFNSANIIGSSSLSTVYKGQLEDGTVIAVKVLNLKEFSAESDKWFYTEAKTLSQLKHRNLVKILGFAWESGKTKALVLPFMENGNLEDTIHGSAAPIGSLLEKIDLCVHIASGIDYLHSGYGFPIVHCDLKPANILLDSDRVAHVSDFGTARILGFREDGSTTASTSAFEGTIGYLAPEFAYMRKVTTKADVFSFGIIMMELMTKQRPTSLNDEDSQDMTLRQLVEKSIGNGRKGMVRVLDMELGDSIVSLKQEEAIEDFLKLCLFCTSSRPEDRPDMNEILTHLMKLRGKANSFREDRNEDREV
Chain of LRR receptor-like serine/threonine-protein kinase FLS2 (Arabidopsis thaliana (Mouse-ear cress)), Q9FL28 R294A;H316A (Q9FL28 whole entry R294A/H316A): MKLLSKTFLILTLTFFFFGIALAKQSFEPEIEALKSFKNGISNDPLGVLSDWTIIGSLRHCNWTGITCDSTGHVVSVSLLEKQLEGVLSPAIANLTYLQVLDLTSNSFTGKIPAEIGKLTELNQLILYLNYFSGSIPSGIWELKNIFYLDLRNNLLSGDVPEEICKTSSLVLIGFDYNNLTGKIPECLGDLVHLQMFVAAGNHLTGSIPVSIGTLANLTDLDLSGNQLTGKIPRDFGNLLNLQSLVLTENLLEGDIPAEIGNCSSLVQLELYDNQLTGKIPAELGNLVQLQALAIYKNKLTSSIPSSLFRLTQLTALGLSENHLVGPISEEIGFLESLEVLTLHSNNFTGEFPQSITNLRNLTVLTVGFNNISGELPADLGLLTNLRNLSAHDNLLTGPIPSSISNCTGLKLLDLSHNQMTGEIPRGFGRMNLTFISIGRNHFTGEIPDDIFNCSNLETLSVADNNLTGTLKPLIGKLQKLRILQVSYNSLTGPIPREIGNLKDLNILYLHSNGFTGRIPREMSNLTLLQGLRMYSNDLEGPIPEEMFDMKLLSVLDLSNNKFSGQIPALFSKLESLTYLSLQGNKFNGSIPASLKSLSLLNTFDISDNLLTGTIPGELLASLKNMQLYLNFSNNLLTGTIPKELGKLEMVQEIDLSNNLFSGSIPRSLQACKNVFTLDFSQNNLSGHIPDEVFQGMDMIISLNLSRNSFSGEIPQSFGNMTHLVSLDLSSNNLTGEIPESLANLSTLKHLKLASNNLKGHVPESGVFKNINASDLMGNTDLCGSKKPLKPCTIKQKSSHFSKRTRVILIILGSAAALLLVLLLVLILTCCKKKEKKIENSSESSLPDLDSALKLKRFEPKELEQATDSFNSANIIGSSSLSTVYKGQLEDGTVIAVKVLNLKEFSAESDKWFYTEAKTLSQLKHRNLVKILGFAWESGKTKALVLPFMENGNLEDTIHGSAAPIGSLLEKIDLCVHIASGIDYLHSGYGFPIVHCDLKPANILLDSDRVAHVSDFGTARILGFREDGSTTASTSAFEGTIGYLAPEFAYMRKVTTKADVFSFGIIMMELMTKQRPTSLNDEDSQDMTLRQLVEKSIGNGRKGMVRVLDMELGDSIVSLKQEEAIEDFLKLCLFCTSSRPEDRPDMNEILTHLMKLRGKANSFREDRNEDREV

Row | Substance | effect of a mutation on the interaction [1] | effect of a mutation on the interaction [2]
1 | LRR receptor-like serine/threonine-protein kinase FLS2 (Arabidopsis thaliana (Mouse-ear cress)), Q9FL28 D414A | decreasing interaction strength | decreasing interaction strength
2 | LRR receptor-like serine/threonine-protein kinase FLS2 (Arabidopsis thaliana (Mouse-ear cress)), Q9FL28 R294A;H316A | disrupting interaction strength | disrupting interaction strength
3 | LRR receptor-like serine/threonine-protein kinase FLS2 (Arabidopsis thaliana (Mouse-ear cress)), Q9FL28 S437Y | decreasing interaction strength | decreasing interaction strength
4 | LRR receptor-like serine/threonine-protein kinase FLS2 (Arabidopsis thaliana (Mouse-ear cress)), Q9FL28 T342Y | disrupting interaction strength | disrupting interaction strength
